The DeepSol protein solubility set

Assay: soluble on expression in E. coli; label from the status in PepcDB or PDB records
With “MADVATKHPMEDEVKKTEASSLVGKLETDVEIKASADKFHHMFAGKPHHVSKASPGNIQGCDLHEGDWGTVGSIVFWNYVHDGEAKVAKERIEAVEPDKNLITFRVIEGDLMKEYKSFLLTIQVTPKPGGPGSIVHWHLEYEKISEEVAHPETLLQFCVEVSKEIDEHLLAEEEEVKTPETPSLVGKLETDVEIKASAEKFHHMFAGKPHHVSKASPGNIQGCDLHEGDWGQVGSIVFWNYVHGKEAKVAKERIEAVEPNKNLITFRVIDGDLMKEYKSFLLTIQVTPKLGGPGSIVHWHLEYEKISEEVAHPETLLQFCVEVSKEIDEHLLAEE” the “soluble on expression in E. coli” value was “soluble”. For “MADVKEKINLLDVIPFRSENITAEKGSDGTVTIAFPRFKYEWMRRFLLPKGMSADIHVRLEDHGTAVWELIDGKRTVRRIIEELAEHFNYEENYESRITAYITQLQKDGFVKLVIEN”, the “soluble on expression in E. coli” value was “not soluble”. With “MAEAESVSVDGWDFSWLDGRATEQRPSWGYQRLMGERLARANAALDIQTGGGEVLAGAMTMPPVMVATESWPPNVAKATALLHPLGAVVVADADEPPLPFAEGAFDLVTSRHPATVWWDEIARVLRPGGTYFSQHVGHASVFELVEYFLGPQPTRPASSSRPANAADSAHRLRPVEGLPDDVGVPGVLGGLPDDVEQDPARGPA” the “soluble on expression in E. coli” value was “not soluble”. With “MAEERHHTEHIPQWKKDEIENIKELIQSHKVFGMVRIEGILATKIQKIRRDLKDVAVLKVSRNTLTERALNQLGESIPEMTRYLDNQTALIFTNESPFKLYKLLEQTKTPSPIKAGAIAPEDIIVQKGPTSFPPGPILGELQSAGIPASIDAGKVAVKETKVVCKAGEAVPQKLATMLSKLEIYPLIVGLDLRAAYDDGTIYEPELLAVDESKYFSDIIRAAQNAFNLSVNTAYPTGATIGTLLAKAYAESKSLGVNAVILEPGVMDSLLAKAHVQMTSVASEAAEKDANAVDDDLREVLGAAASAAAAATVAAPAAEEEKKEEEPEEEEEDHAEEDGMAGLGALFGLEHHHHHH” the “soluble on expression in E. coli” value was “soluble”. In the case of “MAEHECVQLVPIFSELGSEQLDIIESIVRHHHYPAGSTLFGADDPLDSLMIVANGQVKVYQLAANGREQLLYLLQTGDIDGEAALFENQRRTSFGEALVPTDVCSIRRSDFQDLMQKYPSISINVLNVFGKRLNQLERQTTSTATESVEARLANYITETAAALKTDTFKLPLKKKDLATFLGTTPESISRKLALFERQGLITQKPGKVIEINDADQLLLTE”, the “soluble on expression in E. coli” value was “soluble”. With “MAEIPLFPLSNALFPAGVLRLRVFEIRYLDMVRRCIADGSEFGVVVLEQGTEVRRPDGREVLARAGTMARIDHWEAPMPALLELACTGTGRFRLHACTQGKYGLWTGQAEPVPDDAPLEVPPELARSASALGRLIARLQREGVPPHIMPMAAPFRLDDCGWVADRWAEMLSLPPADKARLLLLPPLDRLREIDAVLAADGHALEHHHHHH” the “soluble on expression in E. coli” value was “soluble”. With “MAEKFKIIMTEALSLYIWGCNILNTEKLETLLGFYKQYKALSEYIDKKYKLSLNDLAVLDLTMKHCKDEKVLMQSFLKTAMDELDLSRTKLLVSIRRLIEKERLSKVRSSKDERKIYIYLNNDDISKFNALFEDVEQFLNI” the “soluble on expression in E. coli” value was “not soluble”. With “MAEKSCSLTEFVGTAIGDTLGLVIANVDTALLDAMKLEKRYRSIGILGARTGAGPHIMAADEAVKATNTEVVSIELPRDTKGGAGHGSLIILGGNDVSDVKRGIEVALKELDRTFGDVYGNEAGHIELQYTARASYALEKAFGAPIGRACGIIVGAPASVGVLMADTALKSANVEVVAYSSPAHGTSFSNEAILVISGDSGAVRQAVTSAREIGKTVLATLGSEPKNDRPSYI” the “soluble on expression in E. coli” value was “not soluble”. In the case of “MAELNTHVNVKEKIYAVRSVVPNKSNNEIVLVLQQFDFNVDKAVQAFVDGSAIQVLKEWNMTGKKNNKRKRSKSKQHQGNKDAKDKVERPEAGPLQPQPPQIQNGPMNGCEKDSSSTDSANEKPALIPREKKISILEEPSKALRGVTGPNIEKSVKDLQRCTVSLTRYRVMIKEEVDSSVKKIKAAFAELHNCIIDKEVSLMAEMDKVKEEAMEILTARQKKAEELKRLTDLASQMAEMQLAELRAEIKHFVSERKYDEELGKAARFSCDIEQLKAQIMLCGEITHPKNNYSSRTPCSSLLPLLNAHAATSGKQSNFSRKSSTHNKPSEGKAANPKMVSSLPSTADPSHQTMPANKQNGSSNQRRRFNPQYHNNRLNGPAKSQGSGNEAEPLGKGNSRHEHRRQPHNGFRPKNKGGAKNQEASLGMKTPEAPAHSEKPRRRQHAADTSEARPFRGSVGRVSQCNLCPTRIEVSTDAAVLSVPAVTLVA”, the “soluble on expression in E. coli” value was “soluble”. For “MAELQFPGVYVEDVGHLAFGTLKLTEKSLNFKGDKGGKSVNVTGSDIDKLKWQKLGNKPGLRVGLNDGGAHRFGGFKDTDLEKIQSFTSSNWSQSIDQSNLFIKGWNYGQAEVKGKTVEFSWEDKPIFEIPCTNVSNVIANKNEAVLEFHQNDDSKVQLMEMRFHMPIDLENEEDADKVEEFKKAVLAYAGLEAETEQPICLLTDILCTTPRGRYDIKVYPTSIALHGKTYDYKIPIKSINRLFLVPHKDGRHVYFVLSLNPPIRQGQTRYSYLIFEFGKDEEQDLELALTDEQLESSNGNLRRDMTGPIYETISILFKSICNLKITVPGRFLGSSGTPAIQCTHRQNPGLLYPMEKGFLFIHKPAMYIRFEEISSCHFARSDSGTVTRTFDFEIDLKYGGPLTFNAMEKEENNKLFDYLNKKNIKIRNSQRVENTVADSSDDEIDPYKAAVTAEGRQRDDSDDDSTDEDYDLDKDIKKKKEDKESSEGTGSEPDDEYDSGSEQDSSGTGESEPDSEQDVPSKRRKGEPKEKREKKEKREKKEGKKGKKDKDPNAPKRATSAYMQWFLASRNELKEDGDSVADVAKKGGAKWKTMSSDDKKKWEEKAEEDKSRYEKEMKEYRKNGPPSSSSKPSSSKTSKKSSGPSSSKAISKEYISDSDDSDDEEPKKKEKKAAPKEESEESNNGSDGSDESDDSD”, the “soluble on expression in E. coli” value was “soluble”. In the case of “MAELSDQEMLRYNRQIILRGFDFEGQEALKDARVLVVGLGGLGCAATQYLAGAGVGQLTLLDFDTVSVSNLQRQTLHSDATVGQPKVESARDALARINPHITITPVNARLDDDAMTSLIAGHSLVLDCTDNVSVRNQLNAGCYTAKVPLISGAAIRMEGQVTVFTYRENEPCYRCLSRLFGENALTCVEAGVMAPLIGVIGSLQAMEAIKLLAHYGQPASGKIVMYDAMTCQFREMKLMRNPGCEVCGQ”, the “soluble on expression in E. coli” value was “not soluble”. In the case of “MAESYEEWKSFALKLDEETGAQEWKFDNSSPYFDAELISYRYTLLKRYRQQHRTLDLIYLLKEGLTYDIANIGHPMLFAATHVGTKKLIEDYIEEVSQSLAYIASSECITFQRKEKIEFFENCEKAYGQPALMFSGGATLGLFHTGVCKALIEQDLMPKVLSGSSAGAIMTGMLGISASEDIQNLLNGEQFFSDAFHFRKLRELIKGNGGIADVHYLKKFLIENLGDLTFEEAFKKSGLNINVAVAPYDATENPRIMNAIMTPNVLVWSAVLASCAVPVLFPPVRLTSKRYDGEHTPYMANTKWVDGSVRSDFPQERMARLYNLNYTIASQVNPHVVPFMQDDARRFRKDVLSWPERILRRQGKVLSMGLMDFTRQRLGAISPVRRLLDHGYGVVGQRYYGDVNIIAKYSLKHYAYTLQNPRPHLFKRLQREGERATWPKISSIETHARIGKTIQHCLEVLRFEEKKQQPESYYAEALEHHHHHH”, the “soluble on expression in E. coli” value was “soluble”. In the case of “MAETDPKTVQDLTSVVQTLLQQMQDKFQTMSDQIIGRIDDMSSRIDDLEKNIADLMTQAGVEELESENKIPATQKS”, the “soluble on expression in E. coli” value was “not soluble”. For “MAETVGERPESMSPKLDNATIAAQLGSLATALDEFNRNSGSQVEMSLLLQRVCDQVVDAIADADMAGISLLRDGRVVTVAYTDEAVREIDIPNFQALDGDYFGVAGTRKVVKARLGEAAARWPSVADNLDQAGMRSFLSAPLAVDEALAGTLNIYGQGDHGFSELDAVVLLVYTTAIEGLLRSARSVELARNEVSGLTKAMKSRAVIEQAKGIVMALRGVPADQAFEILVAQSQQEHVKLAEVARRIVESVTTNPE”, the “soluble on expression in E. coli” value was “not soluble”.
